In US20250171520A1 (Regeneron, published 2025):

T1: human CD63 (human, UniProt P08962 2-238)
T1 sequence: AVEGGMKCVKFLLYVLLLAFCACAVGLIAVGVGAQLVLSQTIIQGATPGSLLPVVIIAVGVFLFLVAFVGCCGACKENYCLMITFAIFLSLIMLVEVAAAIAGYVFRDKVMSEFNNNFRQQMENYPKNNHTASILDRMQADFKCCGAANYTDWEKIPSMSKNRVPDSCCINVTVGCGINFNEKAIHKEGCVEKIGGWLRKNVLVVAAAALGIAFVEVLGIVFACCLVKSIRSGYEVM


How the values were obtained:
human CD63 [1] = target: T1, human CD63; assay: cell-based or functional assay
human CD63 [2] = target: T1, human CD63; assay: ECL cell binding, LNCAP cells
Experimental: (§1) LNCAP cells were determined to have a lower human CD63 copy number than U87MG cells. Non-transfected NIH3T3 cells, which have no detectable expression of human CD63 by fluorescence activated cell sorting (FACS), were included as a negative control.
(§2) Briefly, cell lines were rinsed once in PBS buffer without Ca²⁺/Mg²⁺ and incubated for 10 minutes at 37° C. with Enzyme Free Cell Dissociation Solution (Millipore, Cat #S-004-C) to detach the cells. Cells were then washed once with PBS with Ca²⁺/Mg²⁺ and counted with a Cellometer™ Auto T4 cell counter (Nexcelom Bioscience, LLC). Approximately 2.0×10⁴ NIH3T3/hCD63, LNCAP, U87MG or NIH3T3 cells were seeded separately onto 96-well carbon electrode plates (Meso Scale Discovery, Cat #L15XB-6) and were then incubated for one hour at 37° C. Nonspecific binding sites were blocked with 2% BSA (w/v) in PBS with Ca²⁺/Mg²⁺ for one hour at room temperature (RT). Solutions containing anti-CD63 antibodies or isotype control antibodies at a range of concentrations (1.7 pM to 100nM) in 0.5% BSA (w/v) in PBS with Ca²⁺/Mg²⁺, as well as control buffer alone, were then added in duplicate to the plate-bound NIH3T3/hCD63, LNCAP, U87MG or NIH3T3 cells and incubated for one hour at RT. Plates were subsequently washed to remove unbound antibodies using an AquaMax2000 plate washer with a cell washing head (MDS Analytical Technologies). […] Plates were washed and then incubated with Read Buffer (MSD, Cat #R92TD-2) according to the manufacturer's instructions. Luminescent signals were measured using a SECTOR Imager (MSD). Luminescence intensity, measured in relative light units (RLU), was recorded to indicate the binding intensity of each antibody at the range of concentrations tested. The ratio of signal detected with 3.7 nM antibody binding to human CD63 expressing cells compared to the same concentration of antibody binding to negative cells was reported as an indication of specificity of CD63 binding.

human CD63 [3] = target: T1, human CD63; assay: ECL cell binding, U87MG cells
Experimental: as §1, §2

[4] = target: T2, recombinant human CD63 extracellular loop 2 expressed with a C-terminal Myc-Myc-hexahistidine (human); assay: SPR (Biacore), captured mAb, 25°C
T2 construct: also called hCD63 EC loop 2-MMH; human CD63 EC loop2-MMH
Experimental: (§3) Equilibrium dissociation constants (KD) for different CD63loop reagents binding to purified anti-CD63 monoclonal antibodies were determined using a real-time surface plasmon resonance based Biacore T200 biosensor or Biacore 2000 biosensor. All binding studies were performed in 10 mM HEPES, 150 mM NaCl, 3 mM EDTA, and 0.05% v/v Surfactant Tween-20, pH 7.4 (HBS-ET) running buffer at 25° C. and 37° C. The Biacore CM5 sensor chip surface was first derivatized by amine coupling with either a rabbit anti-mouse Fc specific polyclonal antibody (GE Healthcare, Cat #BR100838) or an anti-human Fab kit (GE Healthcare, Cat #28958325) to capture anti-CD63 monoclonal antibodies. Binding studies were performed on either recombinant human CD63 extracellular loop 2 expressed with a C-terminal Myc-Myc-hexahistidine (hCD63 EC loop 2-MMH; SEQ ID NO:80) or recombinant human CD63 extracellular loop 2 expressed with a C-terminal human Fc tag (hCD63 EC loop 2-hFc; SEQ ID NO:81). Different concentrations of hCD63 EC loop 2-MMH or hCD63 EC loop 2-hFc (either tested at 50 nM-12.5 nM in a 4-fold dilution or at 90 nM-0.37 nM in 3-fold serial dilutions) were first prepared in HBS-ET running buffer and were injected over the anti-mouse Fc captured anti-CD63 monoclonal antibody surface for 4 minutes at a flow rate of […] or 50 μL/minute, while the dissociation of monoclonal antibody bound CD63 reagent was monitored for 8 or 10 minutes in HBS-ET running buffer. The association rate (kₐ) and dissociation rate (kd) were determined by fitting the real-time binding sensorgrams to a 1:1 binding model with mass transport limitation using Scrubber 2.0c curve-fitting software. Binding dissociation equilibrium constant (KD) and dissociative half-life (t½) were calculated from the kinetic rates as: […]
(§4) Binding kinetics parameters for human CD63 EC loop 2 protein binding to different anti-CD63 monoclonal antibodies of the invention at 25° C. and 37° C. are shown in Tables 15 through 18.

[5] = target: T3, recombinant human CD63 extracellular loop 2 expressed with a C-terminal human Fc tag (human); assay: SPR (Biacore), captured mAb, 25°C
T3 construct: also called hCD63 EC loop 2-hFc; human CD63 EC loop2-hFC
Experimental: as §3, §4

[6] = target: T2, recombinant human CD63 extracellular …; assay: SPR (Biacore), captured mAb, 37°C
Experimental: as §3, §4

[7] = target: T3, recombinant human CD63 extracellular …; assay: SPR (Biacore), captured mAb, 37°C
Experimental: as §3, §4

human CD63 [8] = target: T1, human CD63; assay: ECL cell binding, NIH3T3/hCD63 cells
Experimental: as §1, §2

human CD63 [9] = target: T1, human CD63; assay: flow cytometry, HEK293 cells endogenously expressing human CD63
Experimental: Relative cell surface binding of the anti-CD63 antibodies to human CD63 expressing cells was accessed via flow cytometry using CD63 positive HEK293 cells (ATCC, Cat #CRL-1573), which endogenously express human CD63, and CD63 negative HEK293/CD63 knock out cells. For the assay, cells were plated in PBS without calcium and magnesium (VWR, Cat #45000-446), containing 2% FBS (Saradigm Cat #1500-500) (Staining Buffer) in 96 well V-bottom plates (Axygen Scientific, Cat #P-96-450-V-C-S). Cells were then incubated with anti-CD63 antibodies or isotype control antibodies at concentrations ranging from 100 nM to 1.7 pM for 30 minutes on ice. Wells containing no antibody were used as controls. HEK293/CD63KO cells were stained with only the highest concentration (100 nM) of the antibodies. […] Cells were then washed and fixed using a 50% solution of Cytofix (BD Biosciences, Cat #554655) diluted in PBS. Samples were run on the Intellicyte Hypercyt flow cytometer and results were analyzed in ForeCyt software (Intellicyte) to calculate the mean fluorescent intensity (MFI). Measured values were analyzed using a four parameter logistic equation over a 12-point response curve using GraphPad Prism and the resulting EC₅₀ values are reported (Table 12). The signal to noise ratio (S/N) was determined by calculating the ratio of the anti-CD63 antibodies or the control antibodies MFI to the wells containing no antibodies (Table 12).

T2 sequence (chain, as listed by the source limits assumed): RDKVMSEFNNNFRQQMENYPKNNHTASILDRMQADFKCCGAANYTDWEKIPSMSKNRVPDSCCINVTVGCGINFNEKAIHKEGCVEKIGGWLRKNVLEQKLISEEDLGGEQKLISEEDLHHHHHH
T3 sequence (chain, as listed by the source limits assumed): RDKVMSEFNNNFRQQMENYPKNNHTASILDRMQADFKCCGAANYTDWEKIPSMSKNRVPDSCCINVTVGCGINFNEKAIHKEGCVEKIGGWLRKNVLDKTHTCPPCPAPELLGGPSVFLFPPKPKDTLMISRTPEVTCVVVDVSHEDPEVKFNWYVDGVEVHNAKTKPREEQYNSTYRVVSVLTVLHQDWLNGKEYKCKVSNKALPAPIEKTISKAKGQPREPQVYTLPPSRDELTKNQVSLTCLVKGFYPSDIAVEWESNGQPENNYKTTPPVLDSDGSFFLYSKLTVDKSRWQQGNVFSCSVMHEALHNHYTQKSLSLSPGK

Row | Binder | EC50 (human CD63 [2]) | ratio at 3.7 nM Ab of cell binding signal (RLU) to human CD63 cells relative to negative NIH3T3 (human CD63 [2]) | ratio at 3.7 nM Ab of cell binding signal (RLU) to human CD63 cells relative to negative NIH3T3 (human CD63 [3]) | 50 nM or 90 nM Ag Bound (RU) [4] | t½ [4] | 50 nM Ag Bound (RU) [5] | t½ [5] | 50 nM Ag Bound (RU) [6] | t½ [6] | 50 nM Ag Bound (RU) [7] | t½ [7] | EC50 (human CD63 [8]) | ratio at 3.7 nM Ab of cell binding signal (RLU) to human CD63 cells relative to negative NIH3T3 (human CD63 [8]) | HEK293 (S/N), MFI of antibody over wells with no antibody (human CD63 [9]) | EC50 (human CD63 [3]) | Kd [4] | koff [4] | kon [4] | T47D (nM) IC50, indirect cytotoxicity with anti-mFc Fab-MMAF (human CD63 [1])
1 | H2M12450N (antibody, V domains shown, also called anti-CD63 antibody) VH: QVQLQESGPKVVKPSETLSLTCTVSGGSISSYYWNWIRQSPGKGLEWIGYTKRGYTDYNPSLRSRVTISEDTSKNQFSLRISSVTAADTAVYYCAQMGWGSHAFDMWGQGTMVAVSS VL: EIVLTQSPGTLSLSPGERATLSCRASQSVNSRYLAWYQQKPGQAPRLLIYGASSRATGIPDRCSGSGSGTDFTLTISRLEPEDFAVYYCQQYGSSPWTFGQGTKVEIK | 0.21 nM | 20 fold | 175 fold | 65 RU | 41 min | 134 RU | 248 min | 58 RU | 57 min | 138 RU | 236 min | 0.28 nM | 230 fold | 26.7 |  |  |  |  | 0.24 nM
2 | H4H12450N (antibody, V domains shown, also called anti-CD63 antibody) VH: QVQLQESGPKVVKPSETLSLTCTVSGGSISSYYWNWIRQSPGKGLEWIGYTKRGYTDYNPSLRSRVTISEDTSKNQFSLRISSVTAADTAVYYCAQMGWGSHAFDMWGQGTMVAVSS VL: not shown |  |  |  | 24 RU | 157 min |  |  |  |  |  |  |  |  |  |  | 0.53 nM | 7.37e-05 s⁻¹ | 139000 M⁻¹ s⁻¹ | 

More lines, in order of falling EC50 (human CD63 [2]), values ahead:

Row | EC50 (human CD63 [2]) | ratio at 3.7 nM Ab of cell binding signal (RLU) to human CD63 cells relative to negative NIH3T3 (human CD63 [2]) | ratio at 3.7 nM Ab of cell binding signal (RLU) to human CD63 cells relative to negative NIH3T3 (human CD63 [3]) | 50 nM or 90 nM Ag Bound (RU) [4] | t½ [4] | 50 nM Ag Bound (RU) [5] | t½ [5] | 50 nM Ag Bound (RU) [6] | t½ [6] | 50 nM Ag Bound (RU) [7] | t½ [7] | EC50 (human CD63 [8]) | ratio at 3.7 nM Ab of cell binding signal (RLU) to human CD63 cells relative to negative NIH3T3 (human CD63 [8]) | HEK293 (S/N), MFI of antibody over wells with no antibody (human CD63 [9]) | EC50 (human CD63 [3]) | Kd [4] | koff [4] | kon [4] | Binder | T47D (nM) IC50, indirect cytotoxicity with anti-mFc Fab-MMAF (human CD63 [1])
3 | 1.7 nM | 7 fold | 52 fold | 52 RU | 27 min | 107 RU | 138 min | 44 RU | 6 min | 118 RU | 35 min | 0.57 nM | 91 fold | 31.6 | 0.95 nM |  |  |  | H1M12451N (antibody, V domains shown, This one was detected or captured with anti-mouse Fc reagents; also called HIM12451; anti-CD63 antibody) VH: QVQLQESGPGLMKPSETLSLTCTVSGGSFSSYYWNWIRQSPGKGLEWIGYIRYSGDTNYKPSLKSRFTISIDTSKNLFSLRLKSVTAADTAVYYCARMGLGSDAFDIWGQGTMVTVSS VL: EIVLTQSPGTLSLSPGERATLSCRASQSVNNNYLAWYQQKPGQAPRLLIYGVFNRATNIPDRFSGSGSGTDFTLTISRLEPEDFAVYYCQQYGSSPWTFGQGTKVEIK | 
4 | 0.35 nM | 18 fold | 171 fold | 42 RU | 6 min | 117 RU | 23 min | 31 RU | 1 min | 123 RU | 6 min | 0.29 nM | 256 fold | 21 | 0.79 nM |  |  |  | H2M12395N (antibody, V domains shown, also called anti-CD63 antibody) VH: QVQLQESGPRLVKPSETLSLTCIVSGGSISNFYWNWIRQSPGKGLEWIGYFFYTGTIDYNPSLKSRVTISLDTSKNQFSLNLRLLTAADAAVYYCARMGLGANAFDIWGHGTMVTVSS VL: EIVLTQSPGTLSLSPGERATLSCRASQHVSSNYLAWYQQKPGQAPRLLIYGGSSRATGIPDRFSGSGSGTDFTLTISRLEPADFAVFYCQQYGNSPWTFGQGTKVEMK | 
